In one assay the target is HLA-B*27:05. Kind of assay: IEDB peptide-MHC binding, purified MHC/direct/fluorescence; filed as Kd, often an IC50 or EC50 that approximates it; ≥ and ≤ were set here for values at or beyond the usual limits of such assays.
The target of the next assay is HLA-B*58:01. The assay is described as above.
The next assay deals with HLA-B*44:02. The assay is described as above. The note with it: source organism: Brucella abortus.
Assay [1] addresses HLA-A*03:01. The description is as above.
In another assay the target is HLA-A*31:01. Described as above.
The next assay deals with HLA-B*07:02. The assay is described as above.
Assay [2] addresses HLA-A*02:01. Described as above.
Assay [3] concerns the target HLA-A*11:01. Described as above.
For a further assay, the target named is HLA-B*40:01. Described as above.
In a further assay the target is HLA-B*08:01. The description is as above.
Assay [4] addresses HLA-A*69:01. Described as above.
Assay [5] addresses HLA-A*01:01. Described as above.
In assay [6] the target is HLA-A*26:01. Described as above.
In assay [7] the target is HLA-B*15:01. The description is as above.
A further assay concerns the target HLA-A*24:03. The description is as above.
The target of another assay is HLA-A*24:02. Put plainly: IEDB peptide-MHC binding, purified MHC/competitive/fluorescence; ≥ and ≤ were set here for values at or beyond the usual limits of such assays.
Assay [8] has as its target HLA-A*02:01. The assay is described as above.
For the next assay, the target named is HLA-B*53:01. Kind of assay: IEDB peptide-MHC binding, purified MHC/competitive/radioactivity; filed as Kd, often an IC50 or EC50 that approximates it; ≥ and ≤ were set here for values at or beyond the usual limits of such assays.
Another assay deals with HLA-B*51:01. The description is as above.
The target in a further assay is HLA-B*39:01. Put plainly: IEDB peptide-MHC binding, purified MHC/competitive/fluorescence; filed as Kd, often an IC50 or EC50 that approximates it; ≥ and ≤ were set here for values at or beyond the usual limits of such assays. The note with it: source organism: Homo sapiens.
The target of a further assay is HLA-B*15:17. The assay is described as above. The note with it: source organism: Homo sapiens.
Assay [9] deals with HLA-A*69:01. The assay is described as above. As to conditions: source organism: Homo sapiens.
Another assay deals with HLA-A*32:01. Kind of assay: IEDB peptide-MHC binding, purified MHC/competitive/radioactivity; filed as Kd, often an IC50 or EC50 that approximates it; ≥ and ≤ were set here for values at or beyond the usual limits of such assays.
Assay [10] concerns the target HLA-B*15:01. The description is as above.
A further assay concerns the target HLA-A*30:02. The description is as above.
Assay [11] has as its target HLA-A*03:01. The assay is described as above.
The target of a further assay is HLA-A*30:01. Described as above. As to conditions: source organism: Dengue virus 4 Philippines/H241/1956.
In assay [12] the target is HLA-A*01:01. The assay is described as above.
Assay [13] deals with HLA-A*26:01. Described as above.
Assay [14] deals with HLA-A*11:01. The description is as above. The note with it: source organism: Dengue virus 2 Jamaica/1409/1983.
The next assay deals with HLA-B*18:01. Kind of assay: IEDB peptide-MHC binding, purified MHC/direct/fluorescence; filed as Kd, often an IC50 or EC50 that approximates it; ≥ and ≤ were set here for values at or beyond the usual limits of such assays. As to conditions: source organism: Giardia lamblia ATCC 50803.
[15] abbreviates: source organism: Brucella abortus.
Where [16] appears, read: source organism: Giardia lamblia ATCC 50803.
Setting [17] is: source organism: Zaire ebolavirus.
[18] abbreviates: source organism: Dengue virus 4 Philippines/H241/1956.
The mark [19] stands for this setting: source organism: Pseudomonas viridiflava.
[20] abbreviates: source organism: Vaccinia virus WR.
[21] abbreviates: source organism: Dengue virus 3 Martinique/1243/1999.
[22] abbreviates: source organism: Sudan ebolavirus.
[23] abbreviates: source organism: Dengue virus 3 Sri Lanka/1266/2000.
Where [24] appears, read: source organism: Dengue virus 2 Jamaica/1409/1983.
Setting [25] is: source organism: Vaccinia virus Copenhagen.
[26] abbreviates: source organism: Dengue virus 2 Peru/IQT2913/1996.

One may read the Kd as the free concentration of one partner at which half of the binding sites on the other are occupied at equilibrium, for simple one-to-one binding. Regarding AENGWGFYF, the dissociation constant (Kd) with HLA-B*27:05 (setting [15]) was at least 20 µM; with HLA-B*58:01 (setting [15]), at least 20 µM; with HLA-B*44:02, 6.42 µM; in the assay with HLA-A*03:01 [1] (setting [15]), at least 20 µM; with HLA-A*31:01 (setting [15]), at least 20 µM; with HLA-B*07:02 (setting [15]) it was at least 20 µM. The Kd with HLA-A*02:01 [2] (setting [15]) was at least 20 µM; with HLA-A*11:01 [3] (setting [15]), at least 20 µM; with HLA-B*40:01 (source organism: Brucella suis), 0.0289 µM; with HLA-B*08:01 (setting [15]), at least 20 µM; with HLA-A*69:01 [4] (setting [15]) it was at least 20 µM; with HLA-A*01:01 [5] (setting [15]), at least 20 µM. The values for the Kd with HLA-A*26:01 [6] (setting [15]) and with HLA-B*15:01 [7] (source organism: Brucella suis) were at least 20 µM and 0.285 µM, respectively.
As to ATPPSLVHF, the Kd in the assay with HLA-A*24:03 (setting [16]) turned out to be 0.152 µM.
Broadly, the IC50 is the concentration at which inhibition is half-maximal. A lower IC50 goes with greater potency. On to CLHHAYQGD, for which the concentration for half-maximal inhibition (IC50) in the assay with HLA-A*24:02 (setting [17]) was at least 92 µM; with HLA-A*02:01 [8] (setting [17]), at least 119 µM.
On to CPNERRAWNF, for which the Kd with HLA-B*53:01 (setting [18]) was determined as 0.0706 µM.
For the sequence DPRRCLKPVI, the Kd with HLA-B*51:01 (source organism: Dengue virus 1 Brazil/97-11/1997) stood at 10.5 µM.
The sequence DPSSGYYST came in with an IC50 with HLA-A*24:02 (setting [17]) of at least 151 µM.
Consider DYDQRDYGF, for which the dissociation constant Kd with HLA-B*27:05 (setting [19]), with HLA-B*58:01 (setting [19]), in the assay with HLA-A*24:03 (setting [19]), with HLA-A*03:01 [1] (setting [19]), with HLA-A*31:01 (setting [19]) and with HLA-B*07:02 (setting [19]) was at least 20 µM throughout. Moreover, the Kd with HLA-A*02:01 [2] (setting [19]), with HLA-A*11:01 [3] (setting [19]), with HLA-B*40:01 (setting [19]), with HLA-B*08:01 (setting [19]), with HLA-A*69:01 [4] (setting [19]) and with HLA-A*01:01 [5] (setting [19]) was at least 20 µM each time. Moreover, the Kd with HLA-A*26:01 [6] (setting [19]) and with HLA-B*15:01 [7] (setting [19]) was at least 20 µM in each case.
Consider FLLQLNETI, for which the IC50 in the assay with HLA-A*24:02 (setting [17]) stood at 0.862 µM; in the assay with HLA-A*02:01 [8] (setting [17]), 0.33 µM.
In the case of GGILPWTKI, the IC50 in the assay with HLA-A*24:02 (setting [20]) was at least 78.1 µM; in the assay with HLA-A*02:01 [8] (setting [20]), at least 125 µM.
Turning to GPSPSHKSV, the Kd with HLA-B*39:01, with HLA-B*15:17 and with HLA-A*69:01 [9] was at least 20 µM throughout.
For the sequence GTLALSLTF, the dissociation constant (Kd) with HLA-A*32:01 (setting [18]) was determined as 1.37 µM; in the assay with HLA-B*15:01 [10] (setting [18]), 0.0362 µM.
With HPGFTILALF, the dissociation constant Kd in the assay with HLA-B*53:01 (setting [21]) was 0.00104 µM.
In the assay with HLA-A*24:03 (source organism: Mycobacterium tuberculosis), IYTLEYDGF yielded an equilibrium dissociation constant (Kd) of 0.0748 µM.
In the case of KGRVGRVNP, the half-maximal inhibitory concentration (IC50) with HLA-A*24:02 (source organism: Variola virus) stood at 9.76 µM.
Consider KLRIKGMSY, for which the Kd in the assay with HLA-A*30:02 (setting [18]) turned out to be 0.0796 µM; with HLA-A*03:01 [11] (setting [18]) it was 0.00836 µM; in the assay with HLA-A*30:01, 0.0186 µM; in the assay with HLA-B*15:01 [10] (setting [18]) it was 0.0385 µM.
As to KQITNELNY, the Kd with HLA-A*30:02 (setting [18]) turned out to be 0.00999 µM; in the assay with HLA-B*15:01 [10] (setting [18]) it was 0.00756 µM.
For KSSFFVWVI, the IC50 with HLA-A*24:02 (setting [22]) stood at 0.0694 µM; with HLA-A*02:01 [8] (setting [22]) it was 0.274 µM.
LLIVSGIFPY: the equilibrium dissociation constant (Kd) in the assay with HLA-A*30:02 (setting [23]) is at least 60 µM; in the assay with HLA-A*01:01 [12] (setting [23]), 7.5 µM; with HLA-A*26:01 [13] (setting [23]), 11.2 µM; with HLA-B*15:01 [10] (setting [23]), 0.00226 µM.
With LPTYLSSRA, the dissociation constant (Kd) with HLA-B*51:01 (setting [18]) was at least 23.7 µM.
As for MPSVIEKMET, the figures for the Kd in the assay with HLA-B*53:01 (setting [24]) and with HLA-B*51:01 (setting [24]) were 1.61 µM and 9.48 µM, respectively.
In turn, MSRRRIYVL yielded a Kd with HLA-B*08:01 (source organism: Cowpox virus) of 0.006 µM.
For the sequence MVYKLVLLF, the figures for the dissociation constant Kd with HLA-A*32:01 (setting [25]) and with HLA-B*15:01 [10] (setting [25]) were 0.33 µM and 0.0705 µM, respectively.
MYLRTIYDL: the equilibrium dissociation constant (Kd) with HLA-A*24:03 (source organism: Rhodococcus erythropolis) amounted to 0.0006 µM.
For the sequence NAVILQNAW, in the assay with HLA-B*53:01 (setting [24]), the Kd stood at 0.0806 µM.
NPTAIFLTT: in the assay with HLA-B*53:01 (setting [24]), the Kd turned out to be 1.68 µM.
With NPTVDGIMTI, in the assay with HLA-B*53:01 (setting [21]), the Kd was determined as 0.214 µM.
As to PPFGDSYIV, the dissociation constant (Kd) with HLA-B*51:01 (setting [18]) was at least 23.1 µM.
Regarding PPVSDLKYSW, the Kd with HLA-B*53:01 (source organism: Dengue virus 4 Dominica/814669/1981) was determined as 1.58 µM.
Consider PYFGPGAEG, for which the IC50 with HLA-A*24:02 (setting [22]) is at least 114 µM.
In the case of QHSTTLFKI, the 50% inhibitory concentration (IC50) in the assay with HLA-A*24:02 (setting [22]) was 2.12 µM; with HLA-A*02:01 [8] (setting [22]) it was at least 80 µM.
As to RIKQKGILGY, the Kd with HLA-A*30:02 (setting [26]) was 1.44 µM; in the assay with HLA-B*15:01 [10] (setting [26]) it was 0.152 µM.
In turn, RWGGTCHIL gave a half-inhibitory concentration (IC50) with HLA-A*24:02 (setting [17]) of 0.0556 µM.
RYPAIAGGI displayed a Kd in the assay with HLA-A*24:03 (source organism: Burkholderia mallei) of 0.0033 µM.
With SFLLMLCLH, in the assay with HLA-A*24:02 (setting [17]), the half-maximal inhibitory concentration (IC50) is at least 266 µM.
For SQHNYRQGY, the Kd was 0.0235 µM in the assay with HLA-A*30:02 (setting [18]) and 0.00347 µM with HLA-B*15:01 [10] (setting [18]).
Turning to TIMAAILAY, the Kd with HLA-A*30:02 (setting [24]) was 0.117 µM; with HLA-A*03:01 [11] (setting [24]) it was 0.0288 µM; with HLA-A*11:01 [14] it was 0.164 µM; with HLA-A*01:01 [12] (setting [24]), at least 26.6 µM; with HLA-A*26:01 [13] (setting [24]), 0.156 µM; in the assay with HLA-B*15:01 [10] (setting [24]), 0.0733 µM.
In the case of TYVQLESRF, the half-maximal inhibitory concentration (IC50) in the assay with HLA-A*24:02 (setting [17]) was 56.4 µM.
Turning to VFLPNPAFI, the values for the half-maximal inhibitory concentration (IC50) with HLA-A*24:02 (source organism: Variola virus) and in the assay with HLA-A*02:01 [8] (source organism: Variola virus) were 18.5 µM and 0.715 µM, respectively.
On to VSKKEGGAMY, for which the Kd in the assay with HLA-A*30:02 (setting [24]) was at least 69.7 µM; in the assay with HLA-A*01:01 [12] (setting [24]), 19.9 µM; in the assay with HLA-B*15:01 [10] (setting [24]), 0.0848 µM.
Turning to VTRGAVLTY, the Kd with HLA-A*30:02 (setting [21]) is at least 76.9 µM; with HLA-A*01:01 [12] (setting [21]) it was 3.11 µM; with HLA-B*15:01 [10] (setting [21]) it was 0.03 µM.
Take WEPPERHIL: the Kd was at least 20 µM in the assay with HLA-B*40:01 (setting [16]) and at most 0.001 µM with HLA-B*18:01.

Values taken from the Immune Epitope Database (IEDB).
